Like-named read-outs stand apart in the source and are kept apart here. Values belong to the molecule of their own block, whether it stands above or below them.
What was measured:
human BDCA2-Fc protein = target: T1, human BDCA2-Fc protein (human, UniProt Q8WTT0 45-213); assay: ELISA, BDCA2-Fc coated at 1 ug/mL
T1 sequence: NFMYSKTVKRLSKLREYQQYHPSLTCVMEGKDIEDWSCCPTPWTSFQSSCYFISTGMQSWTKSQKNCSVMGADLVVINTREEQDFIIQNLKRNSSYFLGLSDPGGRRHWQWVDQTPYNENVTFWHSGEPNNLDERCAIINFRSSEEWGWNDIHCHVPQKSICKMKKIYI

[1] = target: human BDCA2 on cells (293FT-BDCA2 stable transfectant) (human) (UniProt Q8WTT0); assay: flow cytometry (FACS) on 293FT-BDCA2 cells
[2] = target: human BDCA2 on cells (293FT-BDCA2 stable transfectant) (human) (UniProt Q8WTT0); assay: flow cytometry (FACS) on 293FT-BDCA2 cells; remark: listed apart in the source
human BDCA2-his protein [3] = target: T2, human BDCA2-his protein (human, UniProt Q8WTT0 45-213); assay: SPR, Biacore 8K, antibody captured on Protein A chip, BDCA2-his as analyte
T2 construct: also called BDCA2-his antigen protein
T2 sequence: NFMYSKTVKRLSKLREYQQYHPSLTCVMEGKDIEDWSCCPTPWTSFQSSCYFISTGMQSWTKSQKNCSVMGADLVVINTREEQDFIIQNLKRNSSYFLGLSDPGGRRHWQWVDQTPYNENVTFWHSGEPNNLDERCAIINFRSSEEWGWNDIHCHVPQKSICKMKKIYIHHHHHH

human BDCA2-his protein [4] = target: T2, human BDCA2-his protein; assay: ELISA, BDCA2-his coated at 0.1 ug/mL, anti-human Fc HRP

B1: humanized antibody 230 (antibody, V domains shown)
VH: QVQLVQSGAEVKKPGASVKVSCKASGYTFTSYIIHWVRQAPGQGLEWMGTIYPGNGDTSYNQKFKGRVTMTRDTSTSTVYMELSSLRSEDTAVYYCARMGDNEYFDYWGQGTLVTVSS
VL: DIQMTQSPSSLSASVGDRVTITCRASGNIHNYLAWYQQKPGKAPKLLLYDAETLADGVPSRFSGSGSGTDYTLTISSLQPEDFATYYCQHFWSTPYTFGGGTKVEIK
notes: Human IgG1 constant region and human kappa chain constant region; also called 230 antibody; parental monoclonal antibody 230
- Kd (human BDCA2-his protein [3]): 0.0768 nM
- koff (human BDCA2-his protein [3]): 0.00131 s⁻¹
- kon (human BDCA2-his protein [3]): 1.7e+07 M⁻¹ s⁻¹

B2: antibody 237011 (antibody, human IgG1, V domains shown)
VH: QVQLVQSGAEVKKPGASVKVSCKASGYTFTSYLIHWVRQAPGQGLEWMGTIYPGGGDTSYNQKFKGRVTMTRDTSTSTVYMELSSLRSEDTAVYYCARMGDNEYFDYWGQGTLVTVSS
VL: DIQMTQSPSSLSASVGDRVTITCRASGNIHNYLAWYQQKPGKAPKLLLYDAETLAEGVPSRFSGSGSGTDYTLTISSLQPEDFATYYCQHFWSTPYTFGGGTKVEIK
- Kd (human BDCA2-his protein [3]): 0.0259 nM
- koff (human BDCA2-his protein [3]): 0.000652 s⁻¹
- kon (human BDCA2-his protein [3]): 2.52e+07 M⁻¹ s⁻¹

B3: 230IL-NR-DI (antibody, V domains shown)
VH: QVQLVQSGAEVKKPGASVKVSCKASGYTFTSYLIHWVRQAPGQGLEWMGTIYPGRGDTSYNQKFKGRVTMTRDTSTSTVYMELSSLRSEDTAVYYCARMGDNEYFDYWGQGTLVTVSS
VL: DIQMTQSPSSLSASVGDRVTITCRASGNIHNYLAWYQQKPGKAPKLLLYDAETLAIGVPSRFSGSGSGTDYTLTISSLQPEDFATYYCQHFWSTPYTFGGGTKVEIK
notes: Linked to the constant region of the IgG1 subtype
- binding result (human BDCA2-his protein [4]): binds

B4: 230-N55A (antibody, V domains shown)
VH: QVQLVQSGAEVKKPGASVKVSCKASGYTFTSYIIHWVRQAPGQGLEWMGTIYPGAGDTSYNQKFKGRVTMTRDTSTSTVYMELSSLRSEDTAVYYCARMGDNEYFDYWGQGTLVTVSS
VL: DIQMTQSPSSLSASVGDRVTITCRASGNIHNYLAWYQQKPGKAPKLLLYDAETLADGVPSRFSGSGSGTDYTLTISSLQPEDFATYYCQHFWSTPYTFGGGTKVEIK
notes: Single-point mutant of humanized antibody 230 (human IgG1/kappa)
- binding result (human BDCA2-his protein [4]): binds

B5: antibody 230 mutant with light chain CDR2 DAETLAD changed to DAETLAI (antibody, V domains shown)
VH: QVQLVQSGAEVKKPGASVKVSCKASGYTFTSYIIHWVRQAPGQGLEWMGTIYPGNGDTSYNQKFKGRVTMTRDTSTSTVYMELSSLRSEDTAVYYCARMGDNEYFDYWGQGTLVTVSS
VL: DIQMTQSPSSLSASVGDRVTITCRASGNIHNYLAWYQQKPGKAPKLLLYDAETLAIGVPSRFSGSGSGTDYTLTISSLQPEDFATYYCQHFWSTPYTFGGGTKVEIK
notes: Single-point mutant of humanized antibody 230; also called 230 antibody-DI
- binding result (human BDCA2-his protein [4]): binds

B6: 230NG-DI (antibody, V domains shown)
VH: QVQLVQSGAEVKKPGASVKVSCKASGYTFTSYIIHWVRQAPGQGLEWMGTIYPGGGDTSYNQKFKGRVTMTRDTSTSTVYMELSSLRSEDTAVYYCARMGDNEYFDYWGQGTLVTVSS
VL: DIQMTQSPSSLSASVGDRVTITCRASGNIHNYLAWYQQKPGKAPKLLLYDAETLAIGVPSRFSGSGSGTDYTLTISSLQPEDFATYYCQHFWSTPYTFGGGTKVEIK
notes: as for B3
- binding result (human BDCA2-his protein [4]): binds

B7: 230NR-DE (antibody, V domains shown)
VH: QVQLVQSGAEVKKPGASVKVSCKASGYTFTSYIIHWVRQAPGQGLEWMGTIYPGRGDTSYNQKFKGRVTMTRDTSTSTVYMELSSLRSEDTAVYYCARMGDNEYFDYWGQGTLVTVSS
VL: DIQMTQSPSSLSASVGDRVTITCRASGNIHNYLAWYQQKPGKAPKLLLYDAETLAEGVPSRFSGSGSGTDYTLTISSLQPEDFATYYCQHFWSTPYTFGGGTKVEIK
notes: as for B3
- binding result (human BDCA2-his protein [4]): binds

B8: 230IL-NR-DE (antibody, V domains shown)
VH: QVQLVQSGAEVKKPGASVKVSCKASGYTFTSYLIHWVRQAPGQGLEWMGTIYPGRGDTSYNQKFKGRVTMTRDTSTSTVYMELSSLRSEDTAVYYCARMGDNEYFDYWGQGTLVTVSS
VL: DIQMTQSPSSLSASVGDRVTITCRASGNIHNYLAWYQQKPGKAPKLLLYDAETLAEGVPSRFSGSGSGTDYTLTISSLQPEDFATYYCQHFWSTPYTFGGGTKVEIK
notes: as for B3
- binding result (human BDCA2-his protein [4]): binds

B14: antibody 2391 (antibody, human IgG1, V domains shown)
VH: QVQLVQSGAEVKKPGASVKVSCKASGYTFTSYIIHWVRQAPGQGLEWMGTIYPGGGDTSYNQKFKGRVTMTRDTSTSTVYMELSSLRSEDTAVYYCARMGDNEYFDYWGQGTLVTVSS
VL: DIQMTQSPSSLSASVGDRVTITCRASGNIHNYLAWYQQKPGKAPKLLLYDAETLAEGVPSRFSGSGSGTDYTLTISSLQPEDFATYYCQHFWSTPYTFGGGTKVEIK
- Kd (human BDCA2-his protein [3]): 0.0357 nM
- koff (human BDCA2-his protein [3]): 0.000874 s⁻¹
- kon (human BDCA2-his protein [3]): 2.44e+07 M⁻¹ s⁻¹

Results, then the molecule that gave them:

- EC50 (human BDCA2-Fc protein): 0.0346 µg/mL
- EC50 (human BDCA2-Fc protein; record 2): 0.0463 µg/mL
- EC50 [1]: 0.103 µg/mL
- EC50 [2]: 0.124 µg/mL
- Kd (human BDCA2-his protein [3]): 0.087 nM
- koff (human BDCA2-his protein [3]): 0.000121 s⁻¹
- kon (human BDCA2-his protein [3]): 1.39e+06 M⁻¹ s⁻¹
Molecule: positive control antibody Litifilimab (BIIB059, 24F4A)

- binding result (human BDCA2-his protein [4]): binds
B9: antibody 230 mutant with light chain CDR2 DAETLAD changed to DAETLAE (antibody, V domains shown)
VH: QVQLVQSGAEVKKPGASVKVSCKASGYTFTSYIIHWVRQAPGQGLEWMGTIYPGNGDTSYNQKFKGRVTMTRDTSTSTVYMELSSLRSEDTAVYYCARMGDNEYFDYWGQGTLVTVSS
VL: DIQMTQSPSSLSASVGDRVTITCRASGNIHNYLAWYQQKPGKAPKLLLYDAETLAEGVPSRFSGSGSGTDYTLTISSLQPEDFATYYCQHFWSTPYTFGGGTKVEIK
notes: Single-point mutant of humanized antibody 230; also called 230 antibody-DE

- binding result (human BDCA2-his protein [4]): binds
B10: 230IL-NG-DI (antibody, V domains shown)
VH: QVQLVQSGAEVKKPGASVKVSCKASGYTFTSYLIHWVRQAPGQGLEWMGTIYPGGGDTSYNQKFKGRVTMTRDTSTSTVYMELSSLRSEDTAVYYCARMGDNEYFDYWGQGTLVTVSS
VL: DIQMTQSPSSLSASVGDRVTITCRASGNIHNYLAWYQQKPGKAPKLLLYDAETLAIGVPSRFSGSGSGTDYTLTISSLQPEDFATYYCQHFWSTPYTFGGGTKVEIK
notes: as for B3

- binding result (human BDCA2-his protein [4]): binds
B11: 230-N55G (antibody, V domains shown)
VH: QVQLVQSGAEVKKPGASVKVSCKASGYTFTSYIIHWVRQAPGQGLEWMGTIYPGGGDTSYNQKFKGRVTMTRDTSTSTVYMELSSLRSEDTAVYYCARMGDNEYFDYWGQGTLVTVSS
VL: DIQMTQSPSSLSASVGDRVTITCRASGNIHNYLAWYQQKPGKAPKLLLYDAETLADGVPSRFSGSGSGTDYTLTISSLQPEDFATYYCQHFWSTPYTFGGGTKVEIK
notes: as for B4

- binding result (human BDCA2-his protein [4]): binds
B12: 230-N55S (antibody, V domains shown)
VH: QVQLVQSGAEVKKPGASVKVSCKASGYTFTSYIIHWVRQAPGQGLEWMGTIYPGSGDTSYNQKFKGRVTMTRDTSTSTVYMELSSLRSEDTAVYYCARMGDNEYFDYWGQGTLVTVSS
VL: DIQMTQSPSSLSASVGDRVTITCRASGNIHNYLAWYQQKPGKAPKLLLYDAETLADGVPSRFSGSGSGTDYTLTISSLQPEDFATYYCQHFWSTPYTFGGGTKVEIK
notes: as for B4

- binding result (human BDCA2-his protein [4]): binds
B13: 230-I33L (antibody, V domains shown)
VH: QVQLVQSGAEVKKPGASVKVSCKASGYTFTSYLIHWVRQAPGQGLEWMGTIYPGNGDTSYNQKFKGRVTMTRDTSTSTVYMELSSLRSEDTAVYYCARMGDNEYFDYWGQGTLVTVSS
VL: DIQMTQSPSSLSASVGDRVTITCRASGNIHNYLAWYQQKPGKAPKLLLYDAETLADGVPSRFSGSGSGTDYTLTISSLQPEDFATYYCQHFWSTPYTFGGGTKVEIK
notes: as for B4

- binding result (human BDCA2-his protein [4]): binds
B15: 230IL-DI (antibody, V domains shown)
VH: QVQLVQSGAEVKKPGASVKVSCKASGYTFTSYLIHWVRQAPGQGLEWMGTIYPGNGDTSYNQKFKGRVTMTRDTSTSTVYMELSSLRSEDTAVYYCARMGDNEYFDYWGQGTLVTVSS
VL: DIQMTQSPSSLSASVGDRVTITCRASGNIHNYLAWYQQKPGKAPKLLLYDAETLAIGVPSRFSGSGSGTDYTLTISSLQPEDFATYYCQHFWSTPYTFGGGTKVEIK
notes: as for B3

- binding result (human BDCA2-his protein [4]): binds
B16: 230NR-DI (antibody, V domains shown)
VH: QVQLVQSGAEVKKPGASVKVSCKASGYTFTSYIIHWVRQAPGQGLEWMGTIYPGRGDTSYNQKFKGRVTMTRDTSTSTVYMELSSLRSEDTAVYYCARMGDNEYFDYWGQGTLVTVSS
VL: DIQMTQSPSSLSASVGDRVTITCRASGNIHNYLAWYQQKPGKAPKLLLYDAETLAIGVPSRFSGSGSGTDYTLTISSLQPEDFATYYCQHFWSTPYTFGGGTKVEIK
notes: as for B3

- binding result (human BDCA2-his protein [4]): binds
B17: 230-N55R (antibody, V domains shown)
VH: QVQLVQSGAEVKKPGASVKVSCKASGYTFTSYIIHWVRQAPGQGLEWMGTIYPGRGDTSYNQKFKGRVTMTRDTSTSTVYMELSSLRSEDTAVYYCARMGDNEYFDYWGQGTLVTVSS
VL: DIQMTQSPSSLSASVGDRVTITCRASGNIHNYLAWYQQKPGKAPKLLLYDAETLADGVPSRFSGSGSGTDYTLTISSLQPEDFATYYCQHFWSTPYTFGGGTKVEIK
notes: as for B4

- binding result (human BDCA2-his protein [4]): binds
B18: 230IL-DE (antibody, V domains shown)
VH: QVQLVQSGAEVKKPGASVKVSCKASGYTFTSYLIHWVRQAPGQGLEWMGTIYPGNGDTSYNQKFKGRVTMTRDTSTSTVYMELSSLRSEDTAVYYCARMGDNEYFDYWGQGTLVTVSS
VL: DIQMTQSPSSLSASVGDRVTITCRASGNIHNYLAWYQQKPGKAPKLLLYDAETLAEGVPSRFSGSGSGTDYTLTISSLQPEDFATYYCQHFWSTPYTFGGGTKVEIK
notes: as for B3

Reference: EP4725965A1 (Sunshine Guojian Pharmaceutical (Shanghai) Co., Ltd., dated 2026)
